The results in this text go back to US20040229250A1 (SHIRE HUMAN GENETIC THERAPIES, published 2004).

Data set [1] has as its target T1, Formylglycine Generating Enzyme (FGE) purified from bovine testis microsomes (reticuloplasm) (bovine, UniProt Q0P5L5 34-374, N-glycosylated (bound to Concanavalin A)).
T1 construct: mature; Native enzyme at several stages of purification (microsome extract, MonoQ pool, ConA eluate); also called bovine FGE; FGE activity
T1 sequence (looked up): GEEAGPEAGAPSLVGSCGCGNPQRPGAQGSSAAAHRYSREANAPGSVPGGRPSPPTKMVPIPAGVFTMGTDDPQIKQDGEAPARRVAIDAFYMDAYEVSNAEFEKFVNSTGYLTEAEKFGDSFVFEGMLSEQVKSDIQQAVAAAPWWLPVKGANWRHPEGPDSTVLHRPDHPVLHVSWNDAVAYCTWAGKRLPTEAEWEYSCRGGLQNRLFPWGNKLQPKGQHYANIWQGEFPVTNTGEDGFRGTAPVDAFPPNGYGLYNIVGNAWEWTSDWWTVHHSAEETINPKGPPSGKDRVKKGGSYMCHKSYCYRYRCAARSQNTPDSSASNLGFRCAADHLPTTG
In words: affinity chromatography, peptide on Affigel 10, FGE from bovine testis. An excerpt: (§1) For purification of FGE the soluble fraction (reticuloplasm) of bovine testis microsomes served as the starting material. The specific activity of FGE was 10-20 times higher than that in reticuloplasm from bovine pancreas microsomes (Fey et al., J. Biol. Chem., 2001, 276:47021-47028). Purification of FGE was achieved by a combination of four chromatographic steps. The first two steps were chromatography on a MonoQ anion exchanger and on Concanavalin A-Sepharose. At pH 8 the FGE activity bound to MonoQ and was eluted at 50-165 mM NaCl with 60-90% recovery. When this fraction was mixed with Concanavalin A-Sepharose, FGE was bound. 30-40% of the starting activity could be eluted with 0.5 M a-methyl mannoside. The two final purification steps were chromatography on affinity matrices derivatized with 16mer peptides. The first affinity matrix was Affigel 10 substituted with a variant of the ASA65-80 peptide, in which residues Cys69, Pro7l and Arg73, critical for FGly formation, were scrambled (scrambled peptide […] -SEQ ID NO:34). […] Chromatography on the scrambled peptide affinity matrix removed peptide binding proteins including chaperones of the endoplasmic reticulum. The second affinity matrix was Affigel 10 substituted with a variant of the ASA65-80 peptide, in which the Cys69 was replaced by a serine (Ser69 peptide […]-SEQ ID NO:35).

The target of data set [2] is T1, Formylglycine Generating Enzyme (FGE) …. In words: affinity chromatography on peptide-derivatized Affigel 10, FGE activity from bovine testis.
Text: as §1

Data set [3] has as its target T2, 23mer peptide P23 (MTDFYVPVSLCTPSRAALLTGRS).
T2 chain: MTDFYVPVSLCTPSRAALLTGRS

B1: wildtype ASA65-80 peptide (synthetic 16mer corresponding to arylsulfatase A residues 65-80) (peptide)
peptide: PVSLCTPSRAALLTGR
notes: They follow from P23 and from the Ser69 peptide, which is the Cys69 to Ser variant
As for B1, the binding result in data set [1] is on record as “binds”.

B2: Ser69 peptide PVSLSTPSRAALLTGR (peptide)
peptide: PVSLSTPSRAALLTGR
notes: also called Ser69 oligopeptide; variant of the ASA65-80 peptide in which Cys69 was replaced by a serine
On to B2, for which, in data set [1], the binding result is on record as “binds”.

B3: scrambled peptide PVSLPTRSCAALLTGR (peptide)
peptide: PVSLPTRSCAALLTGR
notes: also called scrambled oligopeptide; variant of the ASA65-80 peptide in which residues Cys69, Pro71 and Arg73 were scrambled
For the molecule B3, in data set [2], the binding result is on record as “no binding”.

B4: Formylglycine Generating Enzyme (FGE) purified from bovine testis microsomes (reticuloplasm) (protein)
chain: GEEAGPEAGAPSLVGSCGCGNPQRPGAQGSSAAAHRYSREANAPGSVPGGRPSPPTKMVPIPAGVFTMGTDDPQIKQDGEAPARRVAIDAFYMDAYEVSNAEFEKFVNSTGYLTEAEKFGDSFVFEGMLSEQVKSDIQQAVAAAPWWLPVKGANWRHPEGPDSTVLHRPDHPVLHVSWNDAVAYCTWAGKRLPTEAEWEYSCRGGLQNRLFPWGNKLQPKGQHYANIWQGEFPVTNTGEDGFRGTAPVDAFPPNGYGLYNIVGNAWEWTSDWWTVHHSAEETINPKGPPSGKDRVKKGGSYMCHKSYCYRYRCAARSQNTPDSSASNLGFRCAADHLPTTG
In the case of B4, in data set [3], the “conversion of P23 into a FGly containing derivative (MALDI-TOF)” value was “converted up to 95% of the peptide into a FGly containing derivative” and the km result is “The km for P23 was 13 nM”.
